We go through 8 molecules from patent publication US20180105596A1 (ELSALYS BIOTECH, published 2018).

Experiment [1] concerns the target T1, immunoglobulin-like domain Ig-2 of human Tyro3 (human, UniProt Q06418 139-220).
T1 construct: No fragment of Ig-2 alone was made
T1 sequence: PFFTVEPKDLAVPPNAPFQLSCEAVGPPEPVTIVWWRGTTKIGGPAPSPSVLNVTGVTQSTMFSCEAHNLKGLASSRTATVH
Briefly: double sandwich ELISA on captured fragments of hTyro3 ECD. Background: ELISA stands for enzyme-linked immunosorbent assay.

In experiment [2] the target is T2, cynomolgus Tyro3 ECD, His-Strep tagged.
T2 construct: also called cyno TYRO3 ECD 8hisstrep
T2 extracellular domain: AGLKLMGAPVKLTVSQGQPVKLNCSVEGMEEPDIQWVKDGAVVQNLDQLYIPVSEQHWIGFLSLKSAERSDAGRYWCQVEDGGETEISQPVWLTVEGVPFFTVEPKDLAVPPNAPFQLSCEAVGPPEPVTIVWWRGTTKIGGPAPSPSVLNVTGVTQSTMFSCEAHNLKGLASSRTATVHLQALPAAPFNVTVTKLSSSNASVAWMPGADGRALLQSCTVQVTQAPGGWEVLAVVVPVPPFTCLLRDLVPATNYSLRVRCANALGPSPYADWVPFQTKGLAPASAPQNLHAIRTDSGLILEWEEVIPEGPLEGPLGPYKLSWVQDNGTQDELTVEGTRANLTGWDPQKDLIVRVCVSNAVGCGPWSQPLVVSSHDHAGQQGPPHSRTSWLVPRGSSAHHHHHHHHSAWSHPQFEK
Nature of the experiment: sandwich ELISA, Strep-tagged cynomolgus Tyro3 ECD captured on StrepMAB plate, scFv 3-fold from 10 µg/mL, anti-FLAG-HRP. As to the method: [The procedure below names another species; the source lists this species under the same test.] A double sandwich ELISA was developed. This assay consisted in measuring the binding of the anti-Tyro3 antibodies to be tested on immobilized strep-tagged entire human Tyro3 ECD captured directly on ELISA plate pre-coated with an anti-strep mAb (StrepMAB-Immo coated microplates from IBA biotech). Briefly, the 96 wells of StrepMAB-Immo coated microplate were washed three times with 300 μL of the PBS Tween 0.2% (referred as ELISA washing solution). The capture of an excess of purified strep tagged hTyro3 ECD protein was achieved by a one hour incubation at room temperature. In these experiments, 3 μg of purified protein diluted in PBS, BSA 1% (referred as ELISA diluent solution) were immobilized per well. The wells were washed three times with 300 μL of the washing solution. The non-specific binding sites on the well surface were blocked during 60 min at room temperature with 200 μL/well of blocking solution (PBS, BSA 3%). The wells were washed five times with 300 μL of the washing solution. Then, 100 μl (in duplicates) of the different concentrations of anti-Tyro3 antibodies to be tested diluted in ELISA diluent solution, were added per well and allowed to incubate during 1 hour at room temperature. An Irrelevant control IgG2656 was also added in this experiment. For anti-Tyro3 antibodies in the ScFv format, experiments were performed with 6 concentrations in duplicates (FIG. 3A). For anti-Tyro3 antibodies in the IgG format, experiments were performed with 9 concentrations in duplicates (FIG. 3B). […] For IgGs experiments, starting concentration for first dilution was 3 μg/ml and then dilutions of 3 fold in the ELISA diluent solution were performed. The wells were washed five times with 300 μL of the washing solution. […] The mix was allowed to incubated 60 min at room temperature.

A further experiment deals with T3, Tyro3 ECD Ig2-FNIII 1.
T3 construct: also called Ig2 + FNIII 1 fragment of hTyro3 ECD, His-Strep tagged
T3 fragment: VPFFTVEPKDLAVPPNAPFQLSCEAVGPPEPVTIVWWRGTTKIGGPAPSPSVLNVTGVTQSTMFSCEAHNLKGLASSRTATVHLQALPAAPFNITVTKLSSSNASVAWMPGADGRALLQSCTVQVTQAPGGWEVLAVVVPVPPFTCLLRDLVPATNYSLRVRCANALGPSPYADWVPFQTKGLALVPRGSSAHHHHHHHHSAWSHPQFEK
Nature of the experiment: sandwich ELISA, Strep-tagged fragment captured on StrepMAB plate, scFv 10 µg/mL (Table 17), anti-FLAG-HRP.

The target in experiment [3] is T4, recombinant His-Strep tagged human Tyro3 extracellular domain (human, UniProt Q06418 41-429).
T4 construct: also called hTyro3 ECD; full Tyro3 ECD
T4 sequence: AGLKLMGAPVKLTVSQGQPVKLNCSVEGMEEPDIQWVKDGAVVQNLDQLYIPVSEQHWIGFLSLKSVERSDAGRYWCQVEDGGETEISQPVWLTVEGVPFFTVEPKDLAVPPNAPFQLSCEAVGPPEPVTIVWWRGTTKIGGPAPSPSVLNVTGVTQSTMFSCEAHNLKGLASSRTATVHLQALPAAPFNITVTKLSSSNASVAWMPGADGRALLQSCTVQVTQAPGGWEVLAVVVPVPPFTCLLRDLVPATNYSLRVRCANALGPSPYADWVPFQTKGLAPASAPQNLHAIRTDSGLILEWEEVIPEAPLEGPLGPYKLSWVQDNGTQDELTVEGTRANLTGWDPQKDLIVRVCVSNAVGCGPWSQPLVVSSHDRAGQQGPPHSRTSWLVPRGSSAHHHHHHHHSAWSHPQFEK
Briefly: sandwich ELISA, Strep-tagged hTyro3 ECD captured on StrepMAB plate, scFv 3-fold from 10 µg/mL, anti-FLAG-HRP. Here is the method:
A double sandwich ELISA was developed. This assay consisted in measuring the binding of the anti-Tyro3 antibodies to be tested on immobilized strep-tagged entire human Tyro3 ECD captured directly on ELISA plate pre-coated with an anti-strep mAb (StrepMAB-Immo coated microplates from IBA biotech). Briefly, the 96 wells of StrepMAB-Immo coated microplate were washed three times with 300 μL of the PBS Tween 0.2% (referred as ELISA washing solution). The capture of an excess of purified strep tagged hTyro3 ECD protein was achieved by a one hour incubation at room temperature. In these experiments, 3 μg of purified protein diluted in PBS, BSA 1% (referred as ELISA diluent solution) were immobilized per well. The wells were washed three times with 300 μL of the washing solution. The non-specific binding sites on the well surface were blocked during 60 min at room temperature with 200 μL/well of blocking solution (PBS, BSA 3%). The wells were washed five times with 300 μL of the washing solution. Then, 100 μl (in duplicates) of the different concentrations of anti-Tyro3 antibodies to be tested diluted in ELISA diluent solution, were added per well and allowed to incubate during 1 hour at room temperature. An Irrelevant control IgG2656 was also added in this experiment. For anti-Tyro3 antibodies in the ScFv format, experiments were performed with 6 concentrations in duplicates (FIG. 3A). […]

The target in experiment [4] is T4, recombinant His-Strep tagged human …. Nature of the experiment: sandwich ELISA, Strep-tagged fragment captured on StrepMAB plate, scFv 10 µg/mL (Table 17), anti-FLAG-HRP.

B1: anti-Tyro3 scFv 2414 (scFv, V domains shown)
VH: EVQLVQSGADVKKPGASLTISCQASGYTFTDYWISWVRQKPGKGLEWMGQINRHASNTMYGPSFQGHVTISADRSTATAYLQWRSLEASDTAMYYCVRSGGATSGGTIPEYYQHWGPGTLVTVSS
VL: SYELTQPPSVSVSPGQTARITCSGDALPKKYAYWYQQKSGQAPVLVIYEDWKRASGIPERFSGSSSGTMATLTISGAQVEDEADYYCYSQERKGNYFVFGGGTKLTVL
notes: Tested as a single-chain Fv made in E. coli
On to B1, for which the values for the binding result in experiment [1] and in experiment [2] were “no binding (tested: 10 µg/mL)” and “binds”, respectively.

B2: anti-Tyro3 scFv 2713 (scFv, V domains shown)
VH: EVQLVQSGADVKKPGASLTISCQASGYTFTDYWISWVRQKPGKGLEWMGRISRHGSQTYYGPSFQGHVTISADRSTATAYLQWRSLEASDTAMYYCVRAGGQTSGGTIPEYYQHWGPGTLVTVSS
VL: SYELTQPPSVSVSPGQTARITCSGDALPKKYAYWYQQKSGQAPVLVIYEDHKRASGIPERFSGSSSGTMATLTISGAQVEDEADYYCYSISPAGNYGVFGGGTKLTVL
notes: as for B1
As for B2, the binding result (with Tyro3 ECD Ig2-FNIII 1; in experiment [2]) was “binds” in each case.

B3: anti-Tyro3 scFv 2415 (scFv, V domains shown)
VH: EVQLVQSGADVKKPGASLTISCQASGYTFTDYWISWVRQKPGKGLEWMGQIRGPASATHYGPSFQGHVTISADRSTATAYLQWRSLEASDTAMYYCVRHQQQTSGGTIPEYYQHWGPGTLVTVSS
VL: SYELTQPPSVSVSPGQTARITCSGDALPKKYAYWYQQKSGQAPVLVIYEDKKRISGIPERFSGSSSGTMATLTISGAQVEDEADYYCYSTSTGGNYMVFGGGTKLTVL
notes: as for B1
With B3, the binding result (in the experiment with Tyro3 ECD Ig2-FNIII 1; in experiment [2]) was “binds” in each case.

B4: anti-Tyro3 scFv 2717 (scFv, V domains shown)
VH: EVQLVQSGADVKKPGASLTISCQASGYTFTDYWISWVRQKPGKGLEWMGEIFLPPSTTVYGPSFQGHVTISADRSTATAYLQWRSLEASDTAMYYCVRQTRLTSGGTIPEYYQHWGPGTLVTVSS
VL: SYELTQPPSVSVSPGQTARITCSGDALPKKYAYWYQQKSGQAPVLVIYEDNKRGSGIPERFSGSSSGTMATLTISGAQVEDEADYYCYSKSPEGNYMVFGGGTKLTVL
notes: as for B1
As for B4, the binding result in experiment [1] is “no binding (tested: 10 µg/mL)”; with Tyro3 ECD Ig2-FNIII 1, “no binding (tested: 10 µg/mL)”; in experiment [3], “binds”; in experiment [2], “binds”.

B5: anti-Tyro3 scFv 2412 (scFv, V domains shown)
VH: EVQLVQSGADVKKPGASLTISCQASGYTFTDYWISWVRQKPGKGLEWMGRIRPLLSHTMYGPSFQGHVTISADRSTATAYLQWRSLEASDTAMYYCVRSWLATSGGTIPEYYQHWGPGTLVTVSS
VL: SYELTQPPSVSVSPGQTARITCSGDALPKKYAYWYQQKSGQAPVLVIYEDAKRVSGIPERFSGSSSGTMATLTISGAQVEDEADYYCYSASANGNYRVFGGGTKLTVL
notes: as for B1
In the case of B5, the binding result (in the experiment with Tyro3 ECD Ig2-FNIII 1; in experiment [2]) was “binds” in each case.

B6: anti-Tyro3 scFv 2709 (scFv, V domains shown)
VH: EVQLVQSGADVKKPGASLTISCQASGYTFTDYWISWVRQKPGKGLEWMGAISRNGSTTYYGPSFQGHVTISADRSTATAYLQWRSLEASDTAMYYCVRSGGLTSGGTIPEYYQHWGPGTLVPVSS
VL: SYELTQPPSVSVSPGQTARITCSGDALPKKYAYWYQQKSGQAPVLVIYEDKKRVSGIPERFSGSSSGTMATLTISGAQVEDEADYYCYSLAVDGNYGVFGGGTKLTVL
notes: as for B1
Take B6: the binding result in experiment [1] is “no binding (tested: 10 µg/mL)”; in the experiment with Tyro3 ECD Ig2-FNIII 1, “no binding (tested: 10 µg/mL)”; in experiment [4], “binds”; in experiment [2] it was “binds”.

B7: anti-Tyro3 scFv 2711 (scFv, V domains shown)
VH: EVQLVQSGADVKKPGASLTISCQASGYTFTDYWISWVRQKPGKGLEWMGQIRGQHSSTLYGPSFQGHVTISADRSTATAYLQWRSLEASDTAMYYCVRHGASTSGGTIPEYYQHWGPGTLVTVSS
VL: SYELTQPPSVSVSPGQTARITCSGDALPKKYAYWYQQKSGQAPVLVIYEDAKRSSGIPERFSGSSSGTMATLTISGAQVEDEADYYCYSLSDSGNYFVFGGGTKLTVL
notes: as for B1
As for B7, the binding result (with Tyro3 ECD Ig2-FNIII 1; in experiment [2]) was “binds” throughout.

B8: anti-Tyro3 scFv 2410 (scFv, V domains shown)
VH: EVQLVQSGADVKKPGASLTISCQASGYTFTDYWISWVRQKPGKGLEWMGQIVPRASRTNYGPSFQGHVTISADRSTATAYLQWRSLEASDTAMYYCVRPYFQTSGGTIPEYYQHWGPGTLVTVSS
VL: SYELTQPPSVSVSPGQTARITCSGDALPKKYAYWYQQKSGQAPVLVIYEDEKRASGIPERFSGSSSGTMATLTISGAQVEDEADYYCYSQERNGNYAVFGGGTKLTVL
notes: as for B1
As to B8, the figures for the binding result in experiment [1] and in experiment [2] were “no binding (tested: 10 µg/mL)” and “binds”, respectively.
